Test results: patent publication US20220289837A1, “Cystic Fibrosis Transmembrane Conductance Regulator Stabilizing Agents” (VIB VZW, priority 2019, published 2022)

Columns and labels:
F508del-2PT-NBD1 = biological target: T1, F508del-2PT-NBD1 (Homo sapiens, UniProt P13569, A534P/DEL508-508/I539T/S492P/V470M); assay: NBD1 ELISA dose-response, nanobody binding to immobilized F508del-2PT-NBD1; settings: for effect of F508del mutation on binding: F508del-2PT-NBD1 versus 2PT-NBD1
T1 construct: His6-SUMO (N, cleaved yes); made in house; host or cells: Escherichia coli BL21(DE3) pLysS
Method: For dose-response assays, Nunc MaxiSorp 96-well plates (ThermoScientific), were coated with 5 μg/ml NeutrAvidin Biotin-Binding protein (ThermoScientific) overnight at 4° C. and blocked 2 h at room temperature (RT) with 2% milk in phosphate-buffered saline (PBS). Each new reagent addition was preceded by three washes with 200 μl of NBD1 buffer (20 mM HEPES pH 7.5, 150 mM NaCl, and 10% (w/v) glycerol, 10% (w/v) ethylene glycol, 2 mM ATP, 3 mM MgCl2). Then, biotinylated purified NBD1 proteins at 5 μg/ml were immobilized 30 min at RT followed by 1 h RT incubation with 100 μl various concentrations (0-20 μg/ml) of purified nanobodies. Signal detection was followed using His-tag specific antibody (Invitrogen, catalogue number: MA1-135, 1:3000 dilution) to detect the nanobodies and secondary antibody anti-mouse coupled to horse radish peroxidase (HRP) (Millipore, catalogue number: AP308P, 1:5000 dilution). 50 μl of 1-Step UltraTMB-ELISA (ThermoScientific) was used as a substrate for the peroxidase and intensity of the reaction was proportional to absorbance measured at 450 nm with SynergyMx (BioTek) after addition of 50 μl H2SO4 at 1M.
Affinity constants (KD) and thermodynamic parameters from ITC experiments were determined using one-site binding model with MicroCal Origin 7.0 software (Origin Lab Corp.). Dose response ELISA curves of each Nb binding to either isolated NBD1 or purified FL-CFTR were fitted using the sigmoidal dose-response equation from GraphPad Prism 3. DSC data were analyzed with the MicroCal Origin 7.0 software (Origin Lab Corp.), from which the unfolding temperature (Tm) was obtained.

parental BHK-21 cells = assay: Flow cytometry on parental BHK-21 cells; format: cell-based, hamster; settings: compared to negative control nanobody
Method: Parental BHK-21 cells (ATCC; CCL-10) and cells stably overexpressing human wt-CFTR^[43,44,47] or 2PT-F508del-CFTR, as described above, were permeabilized with 0.01% n-Dodecyl-β-D-Maltopyranoside β-DDM—Inalco) at least for 2 h on ice. In the meantime, cells were incubated with 50 μg/ml nanobodies and DRAQ7 (0.3 μM—Biostatus) to monitor the permeabilization state. Nanobody binding was detected by using His-tag specific antibody (Invitrogen, catalogue number MA1-135, 1 μg/ml) or Myc-tag specific antibody (Invitrogen, catalogue number 13-2500, 2 μg/ml) and then anti-mouse-Alexa Fluor 488 (Invitrogen, catalogue number A11001, 1.3 μg/ml) at least for 30 min on ice. Cells were washed one time between each step by centrifugation (200×g for 5 min at 4° C.). All incubations (100 μl) and washes (1.5 ml) were performed in PBS with 6% fetal bovine serum (FBS) and 0.01%13-DDM on ice. Cells fluorescence was measured with Gallios Flow Cytometer (Beckman Coulter). Data were analyzed with Kaluza software.

wt-CFTR = wt-CFTR (Homo sapiens, UniProt P13569); assay: CFTR pull-down from solubilized BHK-21 cells with immunoblot; format: binding; set-up: expressed in transfected cells; settings: immunoblot with mAb 596
Method: Human wt-CFTR was extracted from BHK-21 cells pellet by solubilization with 1% DMNG in PBS with proteases inhibitors for 1 h at 4° C. The cells debris were removed by centrifugation (16,000×g for 30 min at 4° C.). Supernatant was diluted 10 times in PBS with proteases inhibitors plus 10 mM imidazole and incubated at least for 30 min on HisPur Ni-NTA Resin (Thermo Scientific) pre-loaded with nanobodies. Resin was washed with 40 column volumes of PBS with 300 mM NaCl. Nanobodies were eluted with 200 mM imidazole in PBS. Presence of CFTR in each sample was detected by SDS-PAGE and immuno-blotting.
Cell extracts were separated by SDS-PAGE on 7.5% polyacrylamide gel and transferred to nitrocellulose membrane (Bio-Rad) for immunodetection. After blocking for 1 h with 5% bovine serum albumin (BSA) in Tris-buffered saline added 0.05% Tween-20 (TBST), CFTR was detected using monoclonal antibody mAb 596, IgG2b (CFTR Antibody Distribution Program, dilution 1:46) for 1 h in blocking buffer. Blot was washed 3 times 5 min and incubated with anti-mouse-HRP antibody (Millipore, catalogue number: AP308P, 0.2 μg/ml) for 1 h in TBST. Membrane was washed 3 times for 5 min. CFTR was visualized by chemiluminescence using Luminata Forte Western HRP Substrate (Millipore) and detected with ImageQuant 400 (GE Healthcare).

F508del-CFTR = biological target: T2, F508del-CFTR (Homo sapiens, UniProt P13569, DEL508-508); assay: HS-YFP quenching assay; format: cell-based; settings: HEK293T F508del-CFTR + HS-YFP, 10 μM forskolin and 3 μM VX770, 3 μM VX809 or DMSO 24 h
T2 construct: expressed in transfected cells
Method: To study CFTR function in cells, we used a HS-YFP quenching assay where changes in fluorescence of halide sensitive YFP (HS-YFP) reflect halide entrance through CFTR. HEK293T cells stably expressing F508del-CFTR (or WT CFTR as a control) and a modified YFP were transiently transfected with pcDNA3-based plasmid coding either for a stabilizing nanobody (T2a, D12 or T27) or a control nanobody (not binding F508del-CFTR) and incubated with 3 μM VX809 corrector or 0.06% DMSO for 24 h. Before addition of iodide, cells are stimulated by 10 μM forskolin and 3 μM VX770 potentiator for 20 mins and YFP fluorescence signal is measured (excitation 485, emission 535 nm) over a period of 4 seconds.
The assay was performed as described previously in (Ensinck, et al. 2020) with minor modifications. Briefly, cells stably expressing wt- or F508del-CFTR and a halide sensitive yellow fluorescent protein (HS-YFP) (Galietta, et al. 2001) were transfected with plasmids encoding the nanobodies using PEI and immediately plated into black, clear-bottomed 96-well plates coated with Poly-D-Lysine. After overnight incubation VX-809 (3 μM) or DMSO was added for 24 h. Next, the cells were washed with DPBS and potentiator VX-770 (3 μM) and/or CFTR activator forskolin (#F3917, Sigma-Aldrich, 10 μM) was added for 20 min. Fluorescence was measured after which a I^− buffer (137 mM Nal, 2.7 mM KI, 1.7 mM KH2PO4, 10.1 mM Na2HPO4, 5 mM D-glucose) was injected into the well and fluorescence monitored for another 4 s. YFP quenching was determined at the end of the interval as F/F0, and CFTR function as 1-(F/F0).

T1 sequence (P13569 with tags, fused parts or gaps V470M/S492P/DEL508-508/A534P/I539T limits assumed): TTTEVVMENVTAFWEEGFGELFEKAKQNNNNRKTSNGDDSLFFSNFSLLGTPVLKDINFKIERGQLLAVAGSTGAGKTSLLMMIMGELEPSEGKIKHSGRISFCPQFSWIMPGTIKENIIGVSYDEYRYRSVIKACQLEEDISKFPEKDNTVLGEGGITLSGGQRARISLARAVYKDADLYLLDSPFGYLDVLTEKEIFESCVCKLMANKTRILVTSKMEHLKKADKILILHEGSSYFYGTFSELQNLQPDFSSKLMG
T2 sequence (P13569 with tags, fused parts or gaps DEL508-508): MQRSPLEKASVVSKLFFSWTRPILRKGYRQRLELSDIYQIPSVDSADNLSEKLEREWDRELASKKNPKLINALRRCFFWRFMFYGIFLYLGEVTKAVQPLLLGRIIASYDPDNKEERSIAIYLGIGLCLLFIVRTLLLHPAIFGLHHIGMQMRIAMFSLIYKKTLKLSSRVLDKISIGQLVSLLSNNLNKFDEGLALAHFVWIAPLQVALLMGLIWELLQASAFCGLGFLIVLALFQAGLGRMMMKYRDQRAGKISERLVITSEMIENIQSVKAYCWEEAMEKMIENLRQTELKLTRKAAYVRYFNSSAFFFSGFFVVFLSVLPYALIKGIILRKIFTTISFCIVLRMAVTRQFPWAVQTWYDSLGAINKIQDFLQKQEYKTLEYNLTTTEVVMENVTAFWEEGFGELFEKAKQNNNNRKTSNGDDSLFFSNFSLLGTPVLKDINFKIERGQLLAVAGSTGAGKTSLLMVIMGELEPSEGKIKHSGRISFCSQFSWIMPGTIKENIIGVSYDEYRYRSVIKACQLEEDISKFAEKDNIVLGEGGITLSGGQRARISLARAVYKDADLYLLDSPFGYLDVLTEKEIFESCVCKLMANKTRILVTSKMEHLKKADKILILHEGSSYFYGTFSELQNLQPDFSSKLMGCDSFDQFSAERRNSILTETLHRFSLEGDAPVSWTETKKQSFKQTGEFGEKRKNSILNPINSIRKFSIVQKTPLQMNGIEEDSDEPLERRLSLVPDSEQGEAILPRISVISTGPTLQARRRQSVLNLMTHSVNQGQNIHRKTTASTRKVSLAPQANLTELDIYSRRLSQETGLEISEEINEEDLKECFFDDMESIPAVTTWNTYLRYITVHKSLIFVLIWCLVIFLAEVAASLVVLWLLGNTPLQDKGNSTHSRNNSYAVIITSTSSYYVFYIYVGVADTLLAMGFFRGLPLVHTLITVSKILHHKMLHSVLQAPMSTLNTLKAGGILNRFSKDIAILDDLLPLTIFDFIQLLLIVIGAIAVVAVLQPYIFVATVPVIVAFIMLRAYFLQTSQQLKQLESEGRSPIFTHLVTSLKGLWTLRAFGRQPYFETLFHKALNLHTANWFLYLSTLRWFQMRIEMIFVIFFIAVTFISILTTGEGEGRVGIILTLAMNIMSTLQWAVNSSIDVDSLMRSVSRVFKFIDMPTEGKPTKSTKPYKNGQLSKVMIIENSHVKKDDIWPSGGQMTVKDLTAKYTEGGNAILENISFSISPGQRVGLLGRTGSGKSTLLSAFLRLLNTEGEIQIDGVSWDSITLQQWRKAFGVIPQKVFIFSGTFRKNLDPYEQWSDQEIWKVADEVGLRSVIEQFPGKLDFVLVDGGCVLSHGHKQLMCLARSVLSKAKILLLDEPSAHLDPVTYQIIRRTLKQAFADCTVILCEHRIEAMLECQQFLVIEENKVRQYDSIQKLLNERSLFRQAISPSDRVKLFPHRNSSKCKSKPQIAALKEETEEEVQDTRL
Sequence of wt-CFTR (P13569 whole entry): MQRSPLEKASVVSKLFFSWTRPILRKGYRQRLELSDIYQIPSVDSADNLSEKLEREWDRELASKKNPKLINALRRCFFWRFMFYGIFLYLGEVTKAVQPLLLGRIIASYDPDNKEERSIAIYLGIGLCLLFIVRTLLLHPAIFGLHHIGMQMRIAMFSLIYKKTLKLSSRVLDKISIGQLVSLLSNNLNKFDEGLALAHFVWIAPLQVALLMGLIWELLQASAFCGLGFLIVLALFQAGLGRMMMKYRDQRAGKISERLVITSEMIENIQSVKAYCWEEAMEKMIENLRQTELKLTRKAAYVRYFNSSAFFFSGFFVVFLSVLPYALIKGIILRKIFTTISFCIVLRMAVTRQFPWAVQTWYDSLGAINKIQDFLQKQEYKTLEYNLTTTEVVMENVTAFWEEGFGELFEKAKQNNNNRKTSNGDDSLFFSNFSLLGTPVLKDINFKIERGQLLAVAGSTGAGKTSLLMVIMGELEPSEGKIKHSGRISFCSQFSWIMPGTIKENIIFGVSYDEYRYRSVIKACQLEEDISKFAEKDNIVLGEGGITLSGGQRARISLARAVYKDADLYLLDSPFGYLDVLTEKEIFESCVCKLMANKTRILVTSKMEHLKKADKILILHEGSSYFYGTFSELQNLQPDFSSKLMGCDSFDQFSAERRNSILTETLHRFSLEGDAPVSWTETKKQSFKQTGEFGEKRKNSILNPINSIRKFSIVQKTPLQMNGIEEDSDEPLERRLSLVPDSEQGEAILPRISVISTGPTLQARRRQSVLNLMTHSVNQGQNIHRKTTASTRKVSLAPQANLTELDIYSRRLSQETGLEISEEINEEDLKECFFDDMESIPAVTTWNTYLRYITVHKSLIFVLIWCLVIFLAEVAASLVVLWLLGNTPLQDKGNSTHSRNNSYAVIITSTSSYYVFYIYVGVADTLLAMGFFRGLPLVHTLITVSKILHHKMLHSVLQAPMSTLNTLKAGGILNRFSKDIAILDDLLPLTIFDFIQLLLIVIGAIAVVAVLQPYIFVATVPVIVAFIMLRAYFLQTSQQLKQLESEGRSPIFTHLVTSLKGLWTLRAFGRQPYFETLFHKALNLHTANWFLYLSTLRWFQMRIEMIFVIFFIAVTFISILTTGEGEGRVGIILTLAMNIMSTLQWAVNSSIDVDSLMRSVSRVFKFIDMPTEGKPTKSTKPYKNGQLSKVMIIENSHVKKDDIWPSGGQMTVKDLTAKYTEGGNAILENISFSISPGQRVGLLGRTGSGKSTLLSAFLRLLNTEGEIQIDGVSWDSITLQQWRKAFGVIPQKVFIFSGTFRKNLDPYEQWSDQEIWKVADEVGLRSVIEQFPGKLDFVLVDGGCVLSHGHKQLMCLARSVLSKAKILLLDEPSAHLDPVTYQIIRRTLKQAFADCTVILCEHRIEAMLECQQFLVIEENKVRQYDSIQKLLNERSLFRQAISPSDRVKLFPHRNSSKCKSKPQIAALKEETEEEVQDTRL

Molecule | effect of F508del mutation on binding (F508del-2PT-NBD1) | labelling of parental BHK-21 cells (parental BHK-21 cells) | pull-down of cellular CFTR, electrophoresis pattern (mature band C) (wt-CFTR) | quenching of YFP (CFTR function) (F508del-CFTR) | EC50 of binding to F508del-2PT-NBD1 (F508del-2PT-NBD1; immobilized F508del-2PT-NBD1)
T8: nanobody, SEQ ID NO:7, binds epitope 2 including F508, stabilizes WT CFTR but not F508del (protein, T8 Nanobody amino acid sequence) VHH: QVQLQESGGGLVQPGGSLRLSCAASGSTSSINAMGWYRQAPGKQREPVAISSSGGDTRYAEPVKGRFTISRDNAQNKVYLQMNSLKPEDTAVYYCWLNWGRTSVNSWGQGTQVTVSS | drastically affected | no difference in labelling | identical electrophoresis pattern as observed in whole cell lysate |  | 
T2a: NBD1-specific CFTR-stabilizing nanobody, SEQ ID NO:3, binds epitope 1 (protein, T2a Nanobody amino acid sequence) VHH: QVQLQESGGGLVQAGGSLRLSCAASGSIFRIDAMGWYRQAPGKQRELVAHSTSGGSTDYADSVKGRFTISRDNAKNTVYLQMNSLKPEDTAVYYCNADVRTRWYASNNYWGQGTQVTVSS | not affected | no difference in labelling | identical electrophoresis pattern as observed in whole cell lysate | quenching of YFP | 
T27: NBD1-specific CFTR-stabilizing nanobody, SEQ ID NO:4, binds epitope 1 (protein, T27 Nanobody amino acid sequence) VHH: QVQLQESGGGLEQPGGSLRLSCATSGVIFGINAMGWYRQAPGKQRELVATFTSGGSTNYADFVEGRFTISRDNAKNTVYLQMNGLRPEDTAVYYCHATVVVSRYGLTYDYWGQGTQVTVSS | not affected | no difference in labelling | also observed | quenching of YFP | 
G3a: non-stabilizing nanobody, SEQ ID NO:50, recognizes the structurally diverse region of NBD1 (protein, G3a Nanobody) VHH: QVQLQESGGGLVQAGGSLRLSCTASGRAFSWYVMGWFRQAPGKEREFVATVSGNGSRRDYADSVKGRFTISRDNAKNTVYLQMNSLKPEDTAVYYCAASSTYYYTDPEKYDYWGQGTQVTVSS |  | no difference in labelling | identical electrophoresis pattern as observed in whole cell lysate |  | weaker binding potency
D12: NBD1-specific CFTR-stabilizing nanobody, SEQ ID NO:2, binds epitope 1 (protein, D12 Nanobody amino acid sequence) VHH: QVQLQESGGGLVQAGSSLRLACAATGSIRSINNMGWYRQAPGKQRGMVAIITRVGNTDYADSVKGRFTISRDNAKNTVYLQMNSLKPEDTATYYCHAEITEQSRPFYLTDDYWGQGTQVTVSS | not affected | no difference in labelling | also observed | quenching of YFP | 
